Laboratory results reported in patent US20140357844A1 (RINAT NEUROSCIENCE, published 2014).
Positions count from the first letter of the chain named. Numbers in names are those of the source. Where “and” joins values, the source holds several entries; their conditions need not be identical. Equal values may be shown once.

Experiments:
[1] = target: T1, Trop-2 on Trop-2 expressing tumor cells (human, UniProt P09758 27-323); assay: cell-based or functional assay
T1 sequence: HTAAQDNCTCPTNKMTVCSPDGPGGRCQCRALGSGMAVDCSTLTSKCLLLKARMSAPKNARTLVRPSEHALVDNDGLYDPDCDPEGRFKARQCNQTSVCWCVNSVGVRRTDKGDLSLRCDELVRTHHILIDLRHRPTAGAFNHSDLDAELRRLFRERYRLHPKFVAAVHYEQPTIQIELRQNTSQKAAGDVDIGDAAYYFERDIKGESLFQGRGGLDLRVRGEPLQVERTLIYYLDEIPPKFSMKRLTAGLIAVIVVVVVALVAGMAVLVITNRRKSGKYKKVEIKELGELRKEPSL

[2] = target: T1, Trop-2 on Trop-2 expressing tumor cells; assay: cell-based or functional assay; remark: listed apart in the source
[3] = target: T2, monovalent human Trop2-ECD antigen (human, UniProt P09758 27-274); assay: SPR (ProteOn XPR36), amine-coupled Fab, monovalent human Trop2-ECD as analyte, 25 C;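 note: GLC sensor chip, 3 min association then 15 min buffer dissociation, kinetics fit with a 1:1 Langmuir model, buffer of 10 mM sodium phosphate with 150 mM NaCl and 0.05% Tween-20 at pH 7.4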
T2 construct: also called human Trop2-ECD (Extracellular Domain)
T2 sequence: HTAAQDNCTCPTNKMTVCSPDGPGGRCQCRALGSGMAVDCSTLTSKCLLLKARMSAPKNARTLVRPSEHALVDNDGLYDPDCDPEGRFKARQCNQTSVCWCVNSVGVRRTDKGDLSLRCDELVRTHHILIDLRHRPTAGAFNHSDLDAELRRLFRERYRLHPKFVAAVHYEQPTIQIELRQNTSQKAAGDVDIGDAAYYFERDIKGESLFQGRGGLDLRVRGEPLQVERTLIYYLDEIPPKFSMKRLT
Method: Analysis of Fab/human Trop2-ECD (Extracellular Domain) interactions was performed using a Bio-Rad Proteon XPR36Surface Plasmon Resonance (SPR) biosensor (Bio-Rad, Hercules, Calif.) equipped with a GLC sensor chip. The assay temperature was 25° C., and the assay buffer was 10 mM Sodium Phosphate, 150 mM NaCl, 0.05% Tween-20, pH 7.4. […] In each analysis cycle, monovalent human Trop2-ECD antigen was flowed at 30 μL/min over the immobilized Fabs for 3 minutes followed by a buffer wash for 15 minutes to monitor dissociation of the Fab/Trop2 complex. The sensor surface was regenerated between analysis cycles, using three 18-second injections of a 2:1 mixture (by volume) of Pierce IgG Elution buffer:4 M NaCl (Pierce, Rockford, Ill.). […] The resulting data were fit to a 1:1 Langmuir binding model using the Proteon evaluation software.

[4] = target: T3, cynomolgus monkey Trop-2-hFc (cynomolgus monkey, UniProt A0A2K5UE71 27-274); assay: SPR (Biacore T200), cynomolgus Trop-2-hFc captured by anti-human Fc, Fab as analyte
T3 construct: also called cynoTrop-2; not shown: human Fc
T3 sequence: T2 sequence with M36V, K46E, S67N, I204V

B1: 6G11-TG1-vcMMAD (AcLys-vcMMAD conjugate) (antibody, V domains shown)
VH: QVQLQQPGAELVRPGASVKLSCKASGYTFTSYWINWVKQRPGHGLEWIGNIYPSDSYSNYNQKFKDKATLTVDKSSSTAYMQVSSPTSEDSAVYYCTYGSSFDYWGQGTTVTVSS
VL: DILLTQSPAILSVSPGERVSFSCRASQTIGTSIHWYQQRTNGSPRLLIKYASESISGIPSRFSGSGSGTDFTLSINSVESEDIADYYCQQSNSWPFTFGSGTKLEIK
Ab-IC50, cell viability (CellTiter-Glo, 96 h), A431 (Trop-2+++) [1]: 0.03 µg/mL and 0.197 nM | Ab-IC50, cell viability (CellTiter-Glo, 96 h), Colo205 (Trop-2+) [1]: 0.379 µg/mL and 2.52 nM

B2: h7E6SVG-N297Q/K222R-PEG6MMAD (antibody, V domains shown)
VH: QVQLQESGPGLVKPSETLSLTCTVSGGSISSYGVHWIRQPPGKGLEWIGVIWTSGVTDYNSALMGRVTISVDTSKNQFSLKLSSVTAADTAVYYCARDGDYDRYTMDYWGQGTLVTVSS
VL: DIVMTQSPDSLAVSLGERATINCRASKSVSTSGYSYMHWYQQKPGQPPKLLIYLASNLESGVPDRFSGSGSGTDFTLTISSLQAEDVAVYYCQHSRELPYTFGQGTKLEIK
modifications: N297Q/K222R mutations in the CH2/Hinge domains of heavy chain; conjugated with PEG6-MMAD
Ab IC50, cell viability (CellTiter-Glo, 96 h), A431 (Trop2 +++) [2]: 0.07 nM | Ab IC50, cell viability (CellTiter-Glo, 96 h), BxPC3 (Trop2 ++) [2]: 0.03 nM | Ab IC50, cell viability (CellTiter-Glo, 96 h), Calu-3 (Trop2 ++) [2]: 0.5 nM | Ab IC50, cell viability (CellTiter-Glo, 96 h), Colo205 (Trop2 +) [2]: 21.1 nM | Ab IC50, cell viability (CellTiter-Glo, 96 h), MDA-MB-468 (Trop2 ++) [2]: 0.19 nM | Ab IC50, cell viability (CellTiter-Glo, 96 h), NCI-H292 (Trop2 ++) [2]: 0.03 nM | Ab IC50, cell viability (CellTiter-Glo, 96 h), NCI-H1650 (Trop2 ++) [2]: 0.38 nM | Ab IC50, cell viability (CellTiter-Glo, 96 h), OVCAR3 (Trop2 +++) [2]: 0.98 nM | Ab IC50, cell viability (CellTiter-Glo, 96 h), SKBR3 (Trop2 +/++) [2]: 0.08 nM

B3: h7E6-N-TG1-vcMMAD (AcLys-vcMMAD conjugate) (antibody, V domains shown)
VH: B2 VH with S54G, V56S, G65S
VL: B2 VL with G33N
Ab-IC50, cell viability (CellTiter-Glo, 96 h), A431 (Trop-2+++) [1]: 0.024 µg/mL and 0.163 nM | Ab-IC50, cell viability (CellTiter-Glo, 96 h), CAPAN-2 (Trop-2+/++) [1]: 2.02 µg/mL and 13.5 nM | Ab-IC50, cell viability (CellTiter-Glo, 96 h), Colo205 (Trop-2+) [1]: 0.1 µg/mL and 0.668 nM

B4: h7E6-L-TG1-vcMMAD (AcLys-vcMMAD conjugate) (antibody, V domains shown)
VH: B2 VH with S54G, V56S, G65S
VL: B2 VL with G33L
Ab-IC50, cell viability (CellTiter-Glo, 96 h), A431 (Trop-2+++) [1]: 0.02 µg/mL and 0.132 nM | Ab-IC50, cell viability (CellTiter-Glo, 96 h), BxPC3 (Trop-2++) [1]: 0.035 µg/mL and 0.232 nM | Ab-IC50, cell viability (CellTiter-Glo, 96 h), CAPAN-2 (Trop-2+/++) [1]: 2.03 µg/mL and 13.5 nM | Ab-IC50, cell viability (CellTiter-Glo, 96 h), Colo205 (Trop-2+) [1]: 0.082 µg/mL and 0.549 nM

B5: h7E6-WT-TG1-vcMMAD (AcLys-vcMMAD conjugate) (antibody, V domains shown)
VH: B2 VH with S54G, V56S, G65S
VL: B2 VL
Ab-IC50, cell viability (CellTiter-Glo, 96 h), A431 (Trop-2+++) [1]: 0.022 µg/mL and 0.144 nM | Ab-IC50, cell viability (CellTiter-Glo, 96 h), BxPC3 (Trop-2++) [1]: 0.025 µg/mL and 0.169 nM | Ab-IC50, cell viability (CellTiter-Glo, 96 h), CAPAN-2 (Trop-2+/++) [1]: 1.96 µg/mL and 13 nM | Ab-IC50, cell viability (CellTiter-Glo, 96 h), Colo205 (Trop-2+) [1]: 0.445 µg/mL and 2.97 nM

B6: h7E6SVG-K222R-LCQ3-AcLys-vc-PABC-MMAD (antibody, human IgG1, V domains shown)
VH: B2 VH
VL: B2 VL
Ab-IC50, cell viability (CellTiter-Glo, 96 h), A431 (Trop-2+++) [1]: 0.01 µg/mL and 0.07 nM | Ab-IC50, cell viability (CellTiter-Glo, 96 h), BxPC3 (Trop-2++) [1]: 0.014 µg/mL and 0.092 nM | Ab-IC50, cell viability (CellTiter-Glo, 96 h), Colo205 (Trop-2+) [1]: 2.68 µg/mL and 17.9 nM

B7: h7E6SVG-LCQ03/K222R-vc0101 (antibody, human IgG1, V domains shown)
VH: B2 VH
VL: B2 VL
modifications: AcLys-vc-PABC-0101 on tag LCQ03 (SEQ ID NO: 78) at the C-terminus of the light chain; K222R in the heavy chain constant region
Ab IC50, cell viability (CellTiter-Glo, 96 h), A431 (Trop2 +++) [2]: 0.03 nM | Ab IC50, cell viability (CellTiter-Glo, 96 h), BxPC3 (Trop2 ++) [2]: 0.13 nM | Ab IC50, cell viability (CellTiter-Glo, 96 h), Colo205 (Trop2 +) [2]: 174 nM

B8: h7E6SVG-TG6-AcLys-vc-PABC-MMAD (antibody, human IgG1, V domains shown)
VH: B2 VH
VL: B2 VL
Ab-IC50, cell viability (CellTiter-Glo, 96 h), A431 (Trop-2+++) [1]: 0.011 µg/mL and 0.072 nM | Ab-IC50, cell viability (CellTiter-Glo, 96 h), BxPC3 (Trop-2++) [1]: 0.032 µg/mL and 0.214 nM | Ab-IC50, cell viability (CellTiter-Glo, 96 h), Colo205 (Trop-2+) [1]: 0.209 µg/mL and 1.39 nM

B9: h7E6SVG-TG6-vc0101 (antibody, human IgG1, V domains shown)
VH: B2 VH
VL: B2 VL
modifications: AcLys-vc-PABC-0101 on tag TG6 (LLQGA, SEQ ID NO: 79) at the C-terminus of the heavy chain
Ab IC50, cell viability (CellTiter-Glo, 96 h), A431 (Trop2 +++) [2]: 0.12 nM | Ab IC50, cell viability (CellTiter-Glo, 96 h), BxPC3 (Trop2 ++) [2]: 0.32 nM | Ab IC50, cell viability (CellTiter-Glo, 96 h), Calu-3 (Trop2 ++) [2]: 0.53 nM | Ab IC50, cell viability (CellTiter-Glo, 96 h), Colo205 (Trop2 +) [2]: 32.9 nM | Ab IC50, cell viability (CellTiter-Glo, 96 h), MDA-MB-468 (Trop2 ++) [2]: 0.77 nM | Ab IC50, cell viability (CellTiter-Glo, 96 h), NCI-H292 (Trop2 ++) [2]: 0.63 nM | Ab IC50, cell viability (CellTiter-Glo, 96 h), NCI-H1650 (Trop2 ++) [2]: 1.92 nM | Ab IC50, cell viability (CellTiter-Glo, 96 h), OVCAR3 (Trop2 +++) [2]: 0.56 nM | Ab IC50, cell viability (CellTiter-Glo, 96 h), SKBR3 (Trop2 +/++) [2]: 0.42 nM

B10: h7E6-SVG-TG1-vcMMAD (Aminocapryl-vcMMAD conjugate) (antibody, V domains shown)
VH: B2 VH
VL: B2 VL
Ab-IC50, cell viability (CellTiter-Glo, 96 h), BxPC3 (Trop-2++) [1]: 0.034 µg/mL and 0.229 nM

B11: h7E6-SVGN-TG1-vcMMAD (AcLys-vcMMAD conjugate) (antibody, V domains shown)
VH: B2 VH
VL: B2 VL with G33N
Ab-IC50, cell viability (CellTiter-Glo, 96 h), A431 (Trop-2+++) [1]: 0.023 µg/mL and 0.153 nM | Ab-IC50, cell viability (CellTiter-Glo, 96 h), BxPC3 (Trop-2++) [1]: 0.051 µg/mL and 0.337 nM | Ab-IC50, cell viability (CellTiter-Glo, 96 h), CAPAN-2 (Trop-2+/++) [1]: 2.01 µg/mL and 13.4 nM | Ab-IC50, cell viability (CellTiter-Glo, 96 h), Colo205 (Trop-2+) [1]: 0.083 µg/mL and 0.552 nM

B12: h7E6-SVGL-TG1-vcMMAD (AcLys-vcMMAD conjugate) (antibody, V domains shown)
VH: B2 VH
VL: B2 VL with G33L
Ab-IC50, cell viability (CellTiter-Glo, 96 h), A431 (Trop-2+++) [1]: 0.018 µg/mL and 0.12 nM | Ab-IC50, cell viability (CellTiter-Glo, 96 h), CAPAN-2 (Trop-2+/++) [1]: 2.44 µg/mL and 16.3 nM | Ab-IC50, cell viability (CellTiter-Glo, 96 h), Colo205 (Trop-2+) [1]: 0.052 µg/mL and 0.345 nM

B13: h7E6SVG-LCQ04/K222R-vc0101 (antibody, human IgG1, V domains shown)
VH: B2 VH
VL: B2 VL
modifications: AcLys-vc-PABC-0101 on tag LCQ04 (SEQ ID NO: 79 as printed) at the C-terminus of the light chain; K222R in the heavy chain constant region
Ab IC50, cell viability (CellTiter-Glo, 96 h), BxPC3 (Trop2 ++) [2]: 0.11 nM | Ab IC50, cell viability (CellTiter-Glo, 96 h), Calu-3 (Trop2 ++) [2]: 1.51 nM | Ab IC50, cell viability (CellTiter-Glo, 96 h), NCI-H292 (Trop2 ++) [2]: 1.84 nM

B14: h7E6_SVG20 Fab (Fab, V domains shown)
VH: B2 VH with G99K
VL: B2 VL
notes: also called DK (h7E6_SVG20)
Kd [3]: > 75 nM | koff [3]: 0.013 s⁻¹ | kon [3]: < 170000 M⁻¹ s⁻¹ | t1/2 [3]: 52.8 s

B15: h7E6_SVG19 Fab (Fab, V domains shown)
VH: B2 VH with G99S
VL: B2 VL
notes: also called DS (h7E6_SVG19)
Kd [3]: > 75 nM | koff [3]: 0.045 s⁻¹ | kon [3]: < 600000 M⁻¹ s⁻¹ | t1/2 [3]: 15.6 s

B16: h7E6_SVG30 Fab (Fab, V domains shown)
VH: B2 VH with G99E
VL: B2 VL
notes: also called DE (h7E6_SVG30)
Kd [3]: > 75 nM | koff [3]: 0.064 s⁻¹ | kon [3]: < 850000 M⁻¹ s⁻¹ | t1/2 [3]: 10.8 s

B17: h7E6_SVG22 Fab (Fab, V domains shown)
VH: B2 VH with G99A
VL: B2 VL
notes: also called DA (h7E6_SVG22)
Kd [3]: > 75 nM | koff [3]: 0.013 s⁻¹ | kon [3]: < 180000 M⁻¹ s⁻¹ | t1/2 [3]: 51.6 s

B18: h7E6_SVG28 Fab (Fab, V domains shown)
VH: B2 VH with G99L
VL: B2 VL
notes: also called DL (h7E6_SVG28)
Kd [3]: > 75 nM | koff [3]: 0.016 s⁻¹ | kon [3]: < 210000 M⁻¹ s⁻¹ | t1/2 [3]: 43.2 s

B19: chimeric 7E6 recombinant Fab fragment (Fab, V domains shown)
VH: QVQLKESGPGLVAPSQSLSITCTVSGFSLTSYGVHWVRQPPGKGLEWLGVIWTGGSTDYNSALMSRLSINKDNSKSQVFLKMNSLQTDDTAMYYCARDGDYDRYTMDYWGQGTSVTVSS
VL: DIVLTQSPASLAVSLGQRATISCRASKSVSTSGYSYMHWYQQKPGQPPKLLIYLASNLESGVPARFSGSGSGTDFTLNIHPVEEEDAATYYCQHSRELPYTFGGGTKLEIK
notes: Recombinant chimeric Fab; also called mouse7E6
Kd [4]: 16.5 nM
